Results as given in US20140087995A1 (published 2014).
Changes are numbered by the printed parent chain. Numbered stars: 1 amine (or outer) side, 2 acyl side, 3 side chain; on linkers, the order of the positions; unused ones are H or OH. Bridge positions count the residues as written; N and C are the ends. * marks the point of attachment. C20 diacid = O=C(O)CCCCCCCCCCCCCCCCCCC(=O)*; γGlu = O=C(O)[C@H](CCC(=O)[*:2])N[*:1]

T1: human amylin receptor (human, UniProt P30988 25-474; O60896 24-148, limits assumed)
T1 construct: whole, on cells; Used as cell membranes prepared from the Amylin 3(a)/CRE-luc BHK cells (Assay V); also called hAmylin-R; hAmylinR
T1 sequence (looked up) 1: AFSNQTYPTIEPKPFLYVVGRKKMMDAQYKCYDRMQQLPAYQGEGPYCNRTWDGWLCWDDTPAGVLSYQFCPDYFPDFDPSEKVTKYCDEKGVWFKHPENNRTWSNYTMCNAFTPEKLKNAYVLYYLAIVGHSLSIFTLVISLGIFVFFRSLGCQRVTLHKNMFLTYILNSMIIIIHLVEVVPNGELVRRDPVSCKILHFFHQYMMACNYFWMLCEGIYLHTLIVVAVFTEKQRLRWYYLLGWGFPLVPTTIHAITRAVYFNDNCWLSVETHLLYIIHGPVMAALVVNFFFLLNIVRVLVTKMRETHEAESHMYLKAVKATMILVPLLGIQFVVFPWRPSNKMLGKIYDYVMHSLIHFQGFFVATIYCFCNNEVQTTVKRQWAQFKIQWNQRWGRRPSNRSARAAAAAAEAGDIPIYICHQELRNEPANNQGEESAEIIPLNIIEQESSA
T1 sequence (looked up) 2: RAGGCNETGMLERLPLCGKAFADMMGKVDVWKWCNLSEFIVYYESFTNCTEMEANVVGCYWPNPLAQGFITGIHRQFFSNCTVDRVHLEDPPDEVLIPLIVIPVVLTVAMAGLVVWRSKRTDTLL

B1: N^α1 N^α1-[(4S)-4-carboxy-4-[[(4S)-4-carboxy-4-(19-carboxynonadecanoylamino)butanoyl]amino]butanoyl]-[Glu14,Arg17,Pro21,Pro27]-h-amylin (peptide)
peptide: {C20 diacid-γGlu-γGlu}-KCNTATCATQRLAEFLRHSSPNFGAIPSSTNVGSNTY-NH2
modifications: disulfide 2-7
SMILES: CC[C@H](C)[C@H](NC(=O)[C@H](C)NC(=O)CNC(=O)[C@H](Cc1ccccc1)NC(=O)[C@H](CC(N)=O)NC(=O)[C@@H]1CCCN1C(=O)[C@H](CO)NC(=O)[C@H](CO)NC(=O)[C@H](Cc1c[nH]cn1)NC(=O)[C@H](CCCNC(=N)N)NC(=O)[C@H](CC(C)C)NC(=O)[C@H](Cc1ccccc1)NC(=O)[C@H](CCC(=O)O)NC(=O)[C@H](C)NC(=O)[C@H](CC(C)C)NC(=O)[C@H](CCCNC(=N)N)NC(=O)[C@H](CCC(N)=O)NC(=O)[C@@H](NC(=O)[C@H](C)NC(=O)[C@@H]1CSSC[C@H](NC(=O)[C@H](CCCCN)NC(=O)CC[C@H](NC(=O)CC[C@H](NC(=O)CCCCCCCCCCCCCCCCCCC(=O)O)C(=O)O)C(=O)O)C(=O)N[C@@H](CC(N)=O)C(=O)N[C@@H]([C@@H](C)O)C(=O)N[C@@H](C)C(=O)N[C@@H]([C@@H](C)O)C(=O)N1)[C@@H](C)O)C(=O)N1CCC[C@H]1C(=O)N[C@@H](CO)C(=O)N[C@@H](CO)C(=O)N[C@H](C(=O)N[C@@H](CC(N)=O)C(=O)N[C@H](C(=O)NCC(=O)N[C@@H](CO)C(=O)N[C@@H](CC(N)=O)C(=O)N[C@H](C(=O)N[C@@H](Cc1ccc(O)cc1)C(N)=O)[C@@H](C)O)C(C)C)[C@@H](C)O
notes: also called compound 15
B2: N^α1-[(4S)-4-carboxy-4-(19-carboxynonadecanoylamino)butanoyl]-[Glu14,Arg17,Pro21,Pro27,Arg35]-h-amylin (peptide)
peptide: {C20 diacid-γGlu}-KCNTATCATQRLAEFLRHSSPNFGAIPSSTNVGSRTY-NH2
modifications: disulfide 2-7
SMILES: CC[C@H](C)[C@H](NC(=O)[C@H](C)NC(=O)CNC(=O)[C@H](Cc1ccccc1)NC(=O)[C@H](CC(N)=O)NC(=O)[C@@H]1CCCN1C(=O)[C@H](CO)NC(=O)[C@H](CO)NC(=O)[C@H](Cc1c[nH]cn1)NC(=O)[C@H](CCCNC(=N)N)NC(=O)[C@H](CC(C)C)NC(=O)[C@H](Cc1ccccc1)NC(=O)[C@H](CCC(=O)O)NC(=O)[C@H](C)NC(=O)[C@H](CC(C)C)NC(=O)[C@H](CCCNC(=N)N)NC(=O)[C@H](CCC(N)=O)NC(=O)[C@@H](NC(=O)[C@H](C)NC(=O)[C@@H]1CSSC[C@H](NC(=O)[C@H](CCCCN)NC(=O)CC[C@H](NC(=O)CCCCCCCCCCCCCCCCCCC(=O)O)C(=O)O)C(=O)N[C@@H](CC(N)=O)C(=O)N[C@@H]([C@@H](C)O)C(=O)N[C@@H](C)C(=O)N[C@@H]([C@@H](C)O)C(=O)N1)[C@@H](C)O)C(=O)N1CCC[C@H]1C(=O)N[C@@H](CO)C(=O)N[C@@H](CO)C(=O)N[C@H](C(=O)N[C@@H](CC(N)=O)C(=O)N[C@H](C(=O)NCC(=O)N[C@@H](CO)C(=O)N[C@@H](CCCNC(=N)N)C(=O)N[C@H](C(=O)N[C@@H](Cc1ccc(O)cc1)C(N)=O)[C@@H](C)O)C(C)C)[C@@H](C)O
notes: also called compound 16
B3: N^α1-[(4S)-4-carboxy-4-(19-carboxynonadecanoylamino)butanoyl]-[His14,Arg17,Pro21,Pro27,Glu35]-h-amylin (peptide)
peptide: {C20 diacid-γGlu}-KCNTATCATQRLAHFLRHSSPNFGAIPSSTNVGSETY-NH2
modifications: disulfide 2-7
SMILES: CC[C@H](C)[C@H](NC(=O)[C@H](C)NC(=O)CNC(=O)[C@H](Cc1ccccc1)NC(=O)[C@H](CC(N)=O)NC(=O)[C@@H]1CCCN1C(=O)[C@H](CO)NC(=O)[C@H](CO)NC(=O)[C@H](Cc1c[nH]cn1)NC(=O)[C@H](CCCNC(=N)N)NC(=O)[C@H](CC(C)C)NC(=O)[C@H](Cc1ccccc1)NC(=O)[C@H](Cc1c[nH]cn1)NC(=O)[C@H](C)NC(=O)[C@H](CC(C)C)NC(=O)[C@H](CCCNC(=N)N)NC(=O)[C@H](CCC(N)=O)NC(=O)[C@@H](NC(=O)[C@H](C)NC(=O)[C@@H]1CSSC[C@H](NC(=O)[C@H](CCCCN)NC(=O)CC[C@H](NC(=O)CCCCCCCCCCCCCCCCCCC(=O)O)C(=O)O)C(=O)N[C@@H](CC(N)=O)C(=O)N[C@@H]([C@@H](C)O)C(=O)N[C@@H](C)C(=O)N[C@@H]([C@@H](C)O)C(=O)N1)[C@@H](C)O)C(=O)N1CCC[C@H]1C(=O)N[C@@H](CO)C(=O)N[C@@H](CO)C(=O)N[C@H](C(=O)N[C@@H](CC(N)=O)C(=O)N[C@H](C(=O)NCC(=O)N[C@@H](CO)C(=O)N[C@@H](CCC(=O)O)C(=O)N[C@H](C(=O)N[C@@H](Cc1ccc(O)cc1)C(N)=O)[C@@H](C)O)C(C)C)[C@@H](C)O
notes: also called compound 30
B4: N^α1-[2-[2-[2-[[2-[2-[2-[[(4S)-4-carboxy-4-(19-carboxynonadecanoylamino)butanoyl]amino]ethoxy]ethoxy]acetyl]amino]ethoxy]ethoxy]acetyl]-[Glu14,Arg17,Pro21,Pro27 … (peptide)
peptide: KCNTATCATQRLAEFLRHSSPNFGAIPSSTNVGSNTY
modifications: C20 diacid-gGlu-2xOEG on alpha amino group of the N-terminal residue; Cys2-Cys7 disulfide and C-terminal amide as in h-amylin
notes: also called compound 19
B5: N^α1-[(4S)-4-carboxy-4-(19-carboxynonadecanoylamino)butanoyl]-[Glu14,Arg17,Pro21,Pro27,Pro31]-h-amylin (peptide)
peptide: {C20 diacid-γGlu}-KCNTATCATQRLAEFLRHSSPNFGAIPSSTPVGSNTY-NH2
modifications: disulfide 2-7
SMILES: CC[C@H](C)[C@H](NC(=O)[C@H](C)NC(=O)CNC(=O)[C@H](Cc1ccccc1)NC(=O)[C@H](CC(N)=O)NC(=O)[C@@H]1CCCN1C(=O)[C@H](CO)NC(=O)[C@H](CO)NC(=O)[C@H](Cc1c[nH]cn1)NC(=O)[C@H](CCCNC(=N)N)NC(=O)[C@H](CC(C)C)NC(=O)[C@H](Cc1ccccc1)NC(=O)[C@H](CCC(=O)O)NC(=O)[C@H](C)NC(=O)[C@H](CC(C)C)NC(=O)[C@H](CCCNC(=N)N)NC(=O)[C@H](CCC(N)=O)NC(=O)[C@@H](NC(=O)[C@H](C)NC(=O)[C@@H]1CSSC[C@H](NC(=O)[C@H](CCCCN)NC(=O)CC[C@H](NC(=O)CCCCCCCCCCCCCCCCCCC(=O)O)C(=O)O)C(=O)N[C@@H](CC(N)=O)C(=O)N[C@@H]([C@@H](C)O)C(=O)N[C@@H](C)C(=O)N[C@@H]([C@@H](C)O)C(=O)N1)[C@@H](C)O)C(=O)N1CCC[C@H]1C(=O)N[C@@H](CO)C(=O)N[C@@H](CO)C(=O)N[C@H](C(=O)N1CCC[C@H]1C(=O)N[C@H](C(=O)NCC(=O)N[C@@H](CO)C(=O)N[C@@H](CC(N)=O)C(=O)N[C@H](C(=O)N[C@@H](Cc1ccc(O)cc1)C(N)=O)[C@@H](C)O)C(C)C)[C@@H](C)O
notes: also called compound 31
B6: N^α1-[(4S)-4-carboxy-4-(19-carboxynonadecanoylamino)butanoyl]-[Arg17,Pro21,Pro27,Arg34]-h-amylin (peptide)
peptide: B4 peptide with E14N, S34R
modifications: C20 diacid-gGlu on alpha amino group of the N-terminal residue; Cys2-Cys7 disulfide and C-terminal amide as in h-amylin
notes: also called compound 39
B7: N^α1-[(4S)-4-carboxy-4-(19-carboxynonadecanoylamino)butanoyl]-[Arg17,Pro21,Pro27,Pro31,Glu35]-h-amylin (peptide)
peptide: {C20 diacid-γGlu}-KCNTATCATQRLANFLRHSSPNFGAIPSSTPVGSETY-NH2
modifications: disulfide 2-7
SMILES: CC[C@H](C)[C@H](NC(=O)[C@H](C)NC(=O)CNC(=O)[C@H](Cc1ccccc1)NC(=O)[C@H](CC(N)=O)NC(=O)[C@@H]1CCCN1C(=O)[C@H](CO)NC(=O)[C@H](CO)NC(=O)[C@H](Cc1c[nH]cn1)NC(=O)[C@H](CCCNC(=N)N)NC(=O)[C@H](CC(C)C)NC(=O)[C@H](Cc1ccccc1)NC(=O)[C@H](CC(N)=O)NC(=O)[C@H](C)NC(=O)[C@H](CC(C)C)NC(=O)[C@H](CCCNC(=N)N)NC(=O)[C@H](CCC(N)=O)NC(=O)[C@@H](NC(=O)[C@H](C)NC(=O)[C@@H]1CSSC[C@H](NC(=O)[C@H](CCCCN)NC(=O)CC[C@H](NC(=O)CCCCCCCCCCCCCCCCCCC(=O)O)C(=O)O)C(=O)N[C@@H](CC(N)=O)C(=O)N[C@@H]([C@@H](C)O)C(=O)N[C@@H](C)C(=O)N[C@@H]([C@@H](C)O)C(=O)N1)[C@@H](C)O)C(=O)N1CCC[C@H]1C(=O)N[C@@H](CO)C(=O)N[C@@H](CO)C(=O)N[C@H](C(=O)N1CCC[C@H]1C(=O)N[C@H](C(=O)NCC(=O)N[C@@H](CO)C(=O)N[C@@H](CCC(=O)O)C(=O)N[C@H](C(=O)N[C@@H](Cc1ccc(O)cc1)C(N)=O)[C@@H](C)O)C(C)C)[C@@H](C)O
notes: also called compound 28
B8: N^α1-[(4S)-4-carboxy-4-(19-carboxynonadecanoylamino)butanoyl]-[Arg17,Pro21,Pro27,His34]-h-amylin (peptide)
peptide: B4 peptide with E14N, S34H
modifications: C20 diacid-gGlu on alpha amino group of the N-terminal residue; Cys2-Cys7 disulfide and C-terminal amide as in h-amylin
notes: also called compound 40
B9: N^α1-[(4S)-4-carboxy-4-(19-carboxynonadecanoylamino)butanoyl]-[Arg17,Pro21,Pro27,Glu35]-h-amylin (peptide)
peptide: B4 peptide with E14N, N35E
modifications: C20 diacid-gGlu on alpha amino group of the N-terminal residue; Cys2-Cys7 disulfide and C-terminal amide as in h-amylin
notes: also called compound 23

Biological target: T1, human amylin receptor
Experiment: SPA competition vs 125I-rat amylin, membranes of amylin 3(a) receptor BHK cells (Assay V)
Method: The binding assay was performed using scintillation proximity assay (SPA) beads (RPNQ0001) from PerkinElmer and cell membranes from the Amylin 3(a)/CRE-luc cells (as described in Assay (II)) were used. Membranes were prepared in the following way; the cells were rinsed with PBS and incubated with Versene for approximately 5 min before harvesting. The cells were flushed with PBS and the cell-suspension was centrifuged for 5 min at 1000 rpm. Cells were homogenized (ultrathurrax) in a buffer containing 20 mM Na-HEPES and 10 mM EDTA (pH 7.4) and centrifuged at 20.000 rpm for 15 min. The resulting pellet was resuspended, homogenized and centrifuged (20.000 rpm, 15 min) in a buffer containing 20 mM Na-HEPES and 0.1 mM EDTA (pH 7.4, buffer 2). The resulting pellet was resuspended in buffer 2 and protein concentration was measured (BCA protein Assay, Pierce). The homogenate was kept cold during the whole procedure. The membranes were kept at −80° C. until use. The assay was performed in a 384 well Optiplate (PerkinElmer) in a total volume of 40 ul. Membranes were mixed with SPA beads. Final concentration of membranes 35 ng/μL final and SPA beads was 0.05 mg/well. Test-compounds were dissolved in DMSO and further diluted in assay buffer (50 mM Hepes, pH 7.4, 1 mM CaCl2, 5 mM MgCl₂, 0.1% OA and 0.02% Tween20). […] The final mixture was incubated with shaking at 400 rpm for 120 min at 25° C. prior to centrifugation (1500 rpm, 10 min). Samples were analyzed on TopCounter™ (Packard). The IC₅₀ was calculated using (one site binding competition analysis) GraphPad Prism5 as a measure of receptor affinity.

Row | IC50 [nM] | Binder
1 | 0.597 | B1
2 | 0.894 | B2
3 | 0.919 | B3
4 | 0.556 | B4
5 | 0.204 | B5
6 | 0.665 | B6
7 | 0.61 | B7
8 | 0.549 | B8
9 | 0.871 | B9
